From publication PMC5079630 come the findings set out here.

Data set [1] deals with STAT1 (Tyr701-phosphorylated; GAF) (human (U6A cells)). As to the kind of experiment: EMSA. Particulars: Combined cytoplasmic and nuclear extracts of U6A cells (IFN-beta 500 U/ml or IFN-gamma 50 U/ml, 1 h), normalized for pY701-STAT1; 10 nM dsDNA probe; buffer …. On the technique in general: In EMSA bound probe runs differently from free probe, usually more slowly.
The target in a further data set is importin-α5 (UniProt P52294). As to the kind of experiment: anti-FLAG co-immunoprecipitation, immunoblot. Particulars: reference: STAT1-YFP wild type; sites Y701.
The target in data set [2] is STAT1 N domain (UniProt P42224). As to the kind of experiment: AUC; sedimentation equilibrium of one N domain alone; homodimer to monomers; concentrations not given.
The next data set addresses STAT2 N domain (human) (UniProt P52630). The description is as above.
Data set [3] addresses STAT1 N domain (UniProt P42224). As to the kind of experiment: AUC; sedimentation equilibrium; STAT1 N domain and mEGFP-tagged STAT2 N domain at final equimolar concentrations of 2.5, 10 and 40 uM; heterodimer to monomers.

STAT1 N domain, sequence (P42224 whole entry): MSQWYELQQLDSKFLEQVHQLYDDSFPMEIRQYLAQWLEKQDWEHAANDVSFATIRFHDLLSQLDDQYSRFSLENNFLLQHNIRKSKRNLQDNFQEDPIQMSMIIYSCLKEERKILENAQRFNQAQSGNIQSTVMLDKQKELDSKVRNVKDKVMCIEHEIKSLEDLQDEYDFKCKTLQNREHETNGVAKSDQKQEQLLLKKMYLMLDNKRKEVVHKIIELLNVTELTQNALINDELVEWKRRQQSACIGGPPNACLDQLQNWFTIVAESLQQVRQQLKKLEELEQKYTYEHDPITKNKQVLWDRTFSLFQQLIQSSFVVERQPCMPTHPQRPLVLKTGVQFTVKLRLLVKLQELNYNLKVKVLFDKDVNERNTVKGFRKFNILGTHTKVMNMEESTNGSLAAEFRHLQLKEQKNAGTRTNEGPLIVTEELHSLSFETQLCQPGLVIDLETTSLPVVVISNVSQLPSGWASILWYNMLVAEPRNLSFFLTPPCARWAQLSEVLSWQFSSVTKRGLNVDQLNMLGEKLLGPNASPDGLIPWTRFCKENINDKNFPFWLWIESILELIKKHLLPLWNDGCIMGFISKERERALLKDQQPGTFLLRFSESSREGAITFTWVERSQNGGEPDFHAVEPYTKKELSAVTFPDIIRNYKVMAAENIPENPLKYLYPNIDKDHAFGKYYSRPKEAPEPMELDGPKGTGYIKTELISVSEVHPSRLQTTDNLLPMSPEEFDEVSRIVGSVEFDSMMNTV

In the case of GAS (M67) probe, in data set [1], the binding signal (% of GAF activity without STAT2) is 25.
For the substance “STAT1 (from UniProt P42224) STAT1-YFP Y701F”, the “binding against the reference” value in the data set with importin-α5 is “lost”.
In the case of “STAT1 N domain (from UniProt P42224 1-750) (domain or fragment)”, the Kd – broadly, the constant that tells how readily two partners part at equilibrium – with STAT1 N domain [2] was found to be 16.6 µM.
As to “STAT2 N domain (from UniProt P52630 1-851) (domain or fragment)”, the figures for the Kd in the data set with STAT2 N domain (human) and with STAT1 N domain [3] were 704 µM and 0.01 µM, respectively.
Consider “STAT2 N domain LL81,82AA (from UniProt P52630 1-851) (domain or fragment)”, for which the Kd with STAT1 N domain [3] amounted to 5480 µM.
